Laboratory results: the supplement of paper PMC9112550, “Optimization of the antimicrobial peptide Bac7 by deep mutational scanning” (BMC Biology, 2022)

system: Escherichia coli TOP10; assay: shrunken log2 fold change of peptide-encoding DNA abundance (4.5 h post-induction vs induction); higher = less antimicrobial activity (less host growth inhibition); details: time post-induction: 4.5 h; library: site-saturation at positions 5, 18, 19, 20
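Also: peptides expressed intracellularly from a pBAD plasmid library in pooled LB shake-flask culture, induced with 0.3% L-arabinose, DNA abundance read by NGS, three biological replicates, DESeq2 with apeglm shrinkage.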

| Sequence | shrunken log2 fold change |
| --- | --- |
| RRIRHRPPRLPRPRPRPPYVPRP | -0.0952 |
| RRIRHRPPRLPRPRPRPQCMPRP | -0.123 |
| RRIRHRPPRLPRPRPRPQCYPRP | -0.75 |
| RRIRHRPPRLPRPRPRPQFIPRP | -0.0365 |
| RRIRHRPPRLPRPRPRPQGFPRP | -0.00136 |
| RRIRHRPPRLPRPRPRPQGQPRP | 0.043 |
| RRIRHRPPRLPRPRPRPQHRPRP | -0.355 |
| RRIRHRPPRLPRPRPRPQIHPRP | -0.46 |
| RRIRHRPPRLPRPRPRPQIIPRP | -0.634 |
| RRIRHRPPRLPRPRPRPQKGPRP | -0.0617 |
| RRIRHRPPRLPRPRPRPQKQPRP | 0.219 |
| RRIRHRPPRLPRPRPRPQKVPRP | -0.0567 |
| RRIRHRPPRLPRPRPRPQLEPRP | 0.0607 |
| RRIRHRPPRLPRPRPRPQLHPRP | -0.169 |
| RRIRHRPPRLPRPRPRPQPPPRP | 0.373 |
| RRIRHRPPRLPRPRPRPQPYPRP | -1.53 |
| RRIRHRPPRLPRPRPRPQQKPRP | -0.0153 |
| RRIRHRPPRLPRPRPRPQQLPRP | 0.044 |
| RRIRHRPPRLPRPRPRPQRFPRP | -0.0098 |
| RRIRHRPPRLPRPRPRPQSHPRP | -0.167 |
| RRIRHRPPRLPRPRPRPQSLPRP | -0.00783 |
| RRIRHRPPRLPRPRPRPQTSPRP | -0.264 |
| RRIRHRPPRLPRPRPRPQVDPRP | -0.0221 |
| RRIRHRPPRLPRPRPRPQWCPRP | -0.218 |
| RRIRHRPPRLPRPRPRPQWVPRP | 0.0322 |

| Sequence | shrunken log2 fold change |
| --- | --- |
| RRIRHRPPRLPRPRPRPQYMPRP | -0.252 |
| RRIRHRPPRLPRPRPRPQYPPRP | -0.161 |
| RRIRHRPPRLPRPRPRPRALPRP | 0.152 |
| RRIRHRPPRLPRPRPRPRCHPRP | -0.555 |
| RRIRHRPPRLPRPRPRPRCMPRP | -0.153 |
| RRIRHRPPRLPRPRPRPRFGPRP | 0.0573 |
| RRIRHRPPRLPRPRPRPRGEPRP | -0.0677 |
| RRIRHRPPRLPRPRPRPRHAPRP | 0.164 |
| RRIRHRPPRLPRPRPRPRHWPRP | -0.0269 |
| RRIRHRPPRLPRPRPRPRIKPRP | -0.0701 |
| RRIRHRPPRLPRPRPRPRIPPRP | -0.32 |
| RRIRHRPPRLPRPRPRPRIQPRP | -0.267 |
| RRIRHRPPRLPRPRPRPRKIPRP | 0.051 |
| RRIRHRPPRLPRPRPRPRLVPRP | -0.113 |
| RRIRHRPPRLPRPRPRPRNTPRP | -0.229 |
| RRIRHRPPRLPRPRPRPRTVPRP | 0.126 |
| RRIRHRPPRLPRPRPRPRWAPRP | 0.315 |
| RRIRHRPPRLPRPRPRPSAGPRP | -0.182 |
| RRIRHRPPRLPRPRPRPSCLPRP | -0.4 |
| RRIRHRPPRLPRPRPRPSCMPRP | -0.224 |
| RRIRHRPPRLPRPRPRPSCVPRP | -0.308 |
| RRIRHRPPRLPRPRPRPSGAPRP | -0.0845 |
| RRIRHRPPRLPRPRPRPSGYPRP | -0.0698 |
| RRIRHRPPRLPRPRPRPSHGPRP | -0.137 |
| RRIRHRPPRLPRPRPRPSHNPRP | -0.433 |

| Sequence | shrunken log2 fold change |
| --- | --- |
| RRIRHRPPRLPRPRPRPSILPRP | -0.464 |
| RRIRHRPPRLPRPRPRPSISPRP | -0.727 |
| RRIRHRPPRLPRPRPRPSIWPRP | -0.244 |
| RRIRHRPPRLPRPRPRPSKNPRP | -0.163 |
| RRIRHRPPRLPRPRPRPSLLPRP | -0.287 |
| RRIRHRPPRLPRPRPRPSMCPRP | -0.448 |
| RRIRHRPPRLPRPRPRPSMRPRP | 0.204 |
| RRIRHRPPRLPRPRPRPSQDPRP | -0.032 |
| RRIRHRPPRLPRPRPRPSVCPRP | -0.294 |
| RRIRHRPPRLPRPRPRPSYRPRP | -0.481 |
| RRIRHRPPRLPRPRPRPTADPRP | 0.202 |
| RRIRHRPPRLPRPRPRPTAGPRP | -0.0268 |
| RRIRHRPPRLPRPRPRPTAQPRP | -0.054 |
| RRIRHRPPRLPRPRPRPTCIPRP | -0.147 |
| RRIRHRPPRLPRPRPRPTCNPRP | -0.411 |
| RRIRHRPPRLPRPRPRPTDQPRP | -0.00155 |
| RRIRHRPPRLPRPRPRPTEDPRP | -0.00383 |
| RRIRHRPPRLPRPRPRPTEGPRP | -0.00285 |
| RRIRHRPPRLPRPRPRPTGFPRP | 0.0428 |
| RRIRHRPPRLPRPRPRPTGNPRP | -0.215 |
| RRIRHRPPRLPRPRPRPTHEPRP | 0.0424 |
| RRIRHRPPRLPRPRPRPTHLPRP | -0.102 |
| RRIRHRPPRLPRPRPRPTIMPRP | -0.362 |
| RRIRHRPPRLPRPRPRPTKEPRP | -0.0586 |
| RRIRHRPPRLPRPRPRPTKGPRP | -0.14 |
